The target in data set [1] is Ago2 (guide-loaded) (human) (UniProt Q9UKV8). The data set can be described thus: EMSA. (In general: In EMSA bound probe runs differently from free probe, usually more slowly.)
The target is the same in data set [2]. The data set can be described thus: koff measurement.

Consider four substances from article PMC8616905.

pKd: −log10 of the molar value. Like-named read-outs stand apart in the source and are kept apart here.

Usually pKd stands for the negative decadic logarithm of the Kd, by convention in mol/L. High values mean a low Kd, low ones a high Kd.

Ago2 (guide-loaded) (human), sequence (Q9UKV8 whole entry): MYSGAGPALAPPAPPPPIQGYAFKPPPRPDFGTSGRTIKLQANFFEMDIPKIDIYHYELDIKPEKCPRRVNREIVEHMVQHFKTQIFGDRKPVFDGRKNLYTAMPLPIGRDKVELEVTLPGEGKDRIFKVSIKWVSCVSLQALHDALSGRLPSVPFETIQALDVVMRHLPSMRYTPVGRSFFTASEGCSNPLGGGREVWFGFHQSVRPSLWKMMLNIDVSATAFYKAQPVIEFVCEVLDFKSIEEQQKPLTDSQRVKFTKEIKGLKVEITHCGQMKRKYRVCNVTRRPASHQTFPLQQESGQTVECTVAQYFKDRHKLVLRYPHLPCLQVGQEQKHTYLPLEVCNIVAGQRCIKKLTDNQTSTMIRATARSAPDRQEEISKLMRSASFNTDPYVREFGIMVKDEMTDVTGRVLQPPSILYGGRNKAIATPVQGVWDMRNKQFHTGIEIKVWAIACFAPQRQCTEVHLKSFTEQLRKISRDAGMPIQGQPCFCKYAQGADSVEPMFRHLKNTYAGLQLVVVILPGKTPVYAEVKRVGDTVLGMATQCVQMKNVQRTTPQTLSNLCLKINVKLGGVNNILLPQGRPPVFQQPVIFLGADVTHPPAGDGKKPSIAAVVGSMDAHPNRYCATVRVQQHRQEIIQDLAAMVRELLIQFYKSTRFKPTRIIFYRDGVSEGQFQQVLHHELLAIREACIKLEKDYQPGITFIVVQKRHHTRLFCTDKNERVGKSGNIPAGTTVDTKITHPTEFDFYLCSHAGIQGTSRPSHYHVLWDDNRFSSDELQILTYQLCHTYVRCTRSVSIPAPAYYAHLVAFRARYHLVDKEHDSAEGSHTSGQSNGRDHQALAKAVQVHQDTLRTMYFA

In turn, HCV 5' UTR deltaSL1 + miR-122 guide had a pKd in data set [1] of 10.24.
In turn, Site-1 WT + miR-122 guide yielded a binding signal (relative koff (reference)) in data set [2] of 1.
With “Site-1 deltaSL1 (A4 bridge) + miR-122 guide”, in data set [2], the koff fold change (fold slower koff than Site-1 WT) was 6.
For the substance Site-1 t9 abasic + miR-122 guide, in data set [2] (abasic nucleotide at t9 (G21)), the koff fold change (fold slower koff than Site-1 WT) worked out at 3.
